Assays:
[1] = target: the molecule itself; assay: single-molecule pull-down (SiMPull); solubilized cochlea supernatant of P6 mice applied to slide coated with anti-PCDH15 mAb 8D1; detected with 39G7 Fab-GFP and anti-LHFPL5 mAb-Alexa647 (colocalization) or with 39G7 Fab-GFP or anti-LHFPL5 Fab-GFP (photobleaching steps); TIRF
[2] = target: the molecule itself; assay: single-molecule pull-down (SiMPull); purified co-expressed recombinant PCDH15/LHFPL5 complex (100 pM) captured on slide by biotinylated anti-PCDH15 mAb 8D1; detected with 39G7 Fab-GFP and anti-LHFPL5 mAb-Alexa647 (colocalization) or with 39G7 Fab-GFP or anti-LHFPL5 Fab-GFP (photobleaching steps); TIRF; buffer with 0.005% C12M, 0.001% CHS, pH 8.0

B1: native protocadherin-15 (PCDH15) from mouse cochlea or utricle (natural protein)
chain: not shown
notes: protocadherin-15, mouse, endogenous in inner ear tissue; also called native PCDH15; source: endogenous, cochlea or utricle of P6 mice, solubilized (1% C12M, 0.2% CHS), supernatant
- stoichiometry N [1]: 2

B2: recombinant protocadherin-15 (PCDH15), residues 1-1462 (EC1-EC11 and part of the cytoplasmic region) (domain or fragment)
chain: not shown
notes: signal peptide in the construct; also called recombinant PCDH15; source: HEK293 tsa201 cells co-infected with PCDH15 and LHFPL5 BacMam viruses; purified as a complex with LHFPL5 (Strep-Tactin, TALON, SEC)
- stoichiometry N [2]: 2

B3: recombinant lipoma HMGIC fusion partner-like protein 5 (LHFPL5), residues 2-219 (natural protein, Mus musculus, UniProt Q4KL25 2-219, looked up)
chain: VKLLPAQEAAKIYHTNYVRNSRAVGVMWGTLTICFSVLVMALFIQPYWIGDSVSTPQAGYFGLFSYCVGNVLSSELICKGGPLDFSSIPSRAFKTAMFFVALAMFLIIGSIICFSLFFVCNTATVYKICAWMQLAAATGLMIGCLVYPDGWDSSEVRRMCGEQTGKYTLGHCTIRWAFMLAILSIGDALILSFLAFVLGYRQDKLLPDDYKADGNEEV
notes: the results call the construct the full-length protein; also called TMHS; recombinant LHFPL5; source: HEK293 tsa201 cells co-infected with PCDH15 (or PCDH15_(1EC)) and LHFPL5 BacMam viruses; purified as a complex (Strep-Tactin, TALON, SEC)
- stoichiometry N [2]: 2

B4: native lipoma HMGIC fusion partner-like protein 5 (LHFPL5) from mouse cochlea or utricle (natural protein, UniProt Q4KL25 1-219, looked up)
chain: MVKLLPAQEAAKIYHTNYVRNSRAVGVMWGTLTICFSVLVMALFIQPYWIGDSVSTPQAGYFGLFSYCVGNVLSSELICKGGPLDFSSIPSRAFKTAMFFVALAMFLIIGSIICFSLFFVCNTATVYKICAWMQLAAATGLMIGCLVYPDGWDSSEVRRMCGEQTGKYTLGHCTIRWAFMLAILSIGDALILSFLAFVLGYRQDKLLPDDYKADGNEEV
notes: LHFPL5 (TMHS), mouse, endogenous in inner ear tissue; also called native LHFPL5; TMHS; source: endogenous, cochlea or utricle of P6 mice, solubilized (1% C12M, 0.2% CHS), supernatant
- stoichiometry N [1]: 2
